Assay results: patent US20080182978A1, “ANTI-NGF ANTIBODIES AND METHODS USING SAME” (RINAT NEUROSCIENCE CORP, priority 2002, published 2008)

Key:
human NGF [1] = biological target: T1, human NGF (Homo sapiens, UniProt P01138); assay: cell-based or functional assay
Target sequence in this assay (P01138 122-241 limits assumed): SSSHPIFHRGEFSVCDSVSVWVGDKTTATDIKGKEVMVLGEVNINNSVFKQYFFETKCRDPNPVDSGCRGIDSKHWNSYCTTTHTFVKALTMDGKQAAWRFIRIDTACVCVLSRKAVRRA

rat NGF (rat) = rat NGF (rat) (UniProt P25427); assay: cell-based or functional assay
rat NGF = rat NGF (Rattus norvegicus, UniProt P25427); assay: Mouse E13.5 trigeminal neuron survival assay, rat NGF; assay type: cell-based; settings: 1.5 or 15 pM rat NGF
Protocol: (§1) The ability of Fab E3 or full antibody E3 to block NGF activity was evaluated by measurement of the capacity of the antibody to inhibit NGF-dependent survival of mouse E13.5 trigeminal neurons in vitro. The trigeminal ganglion is comprised of cutaneous sensory neurons that innervate the facial region. The survival of mouse E13.5 trigeminal neurons is a sensitive assay to evaluate the NGF-blocking activity of anti-NGF antagonist antibodies because NGF is required to support survival of these neurons. For example, at saturating concentrations of NGF, the survival is close to 100% by 48 hours in culture. By contrast, less than 5% of the neurons survive by 48 hours in absence of NGF.
The survival assay was conducted as follows: time-mated pregnant Swiss Webster female mice were euthanized by CO2 inhalation. The uterine horns were removed and the embryos at embryonic stage E13.5 were extracted and decapitated. The trigeminal ganglia were dissected using electrolytically sharpened tungsten needles. The ganglia were then trypsinized, mechanically dissociated and plated at a density of 200-300 cells per well in defined, serum-free medium in 96-well plates coated with poly-L-ornithine and laminin. […]

human NGF [2] = biological target: T1, human NGF; assay: Mouse E13.5 trigeminal neuron survival assay, human NGF; assay type: cell-based; settings: 1.5 or 15 pM human NGF
Protocol: as §1
Target sequence in this assay (P01138 122-241): as the sequence (P01138 122-241 limits assumed) above
The survival assay was conducted as follows: time-mated pregnant Swiss Webster female mice were euthanized by CO2 inhalation. The uterine horns were removed and the embryos at embryonic stage E13.5 were extracted and decapitated. The trigeminal ganglia were dissected using electrolytically sharpened tungsten needles. The ganglia were then trypsinized, mechanically dissociated and plated at a density of 200-300 cells per well in defined, serum-free medium in 96-well plates coated with poly-L-ornithine and laminin.
After 48 hours in culture, the cells were subjected to an automated immunocytochemistry protocol performed on a Biomek FX liquid handling workstation (Beckman Coulter) as follows: fixation using 4% formaldehyde, 5% sucrose, and PBS; permeabilization using 0.3% Triton X-100 in PBS); blocking of unspecific binding sites using 5% normal goat serum, 0.11% BSA in PBS; and sequential incubation with a primary and secondary antibodies to detect neurons. The primary antibody was rabbit polyclonal antibody against the protein gene product […] (PGP9.5, Chemicon), an established neuronal phenotypic marker. The secondary antibody was Alexa Fluor 488 goat anti-rabbit (Molecular Probes), together with the nuclear dye Hoechst 33342 (Molecular Probes) to label the nuclei of all the cells present in the culture. […]

human NGF [3] = biological target: T1, human NGF; assay: BIAcore screening assay of Fab library clones (koff); assay type: binding
Protocol: Small scale expression in 96 wells plates was optimized for screening Fab libraries. Starting from E. coli transformed with a Fab library, colonies were picked to inoculate both a master plate (agar LB+Ampicillin (50 μg/ml)+2% Glucose) and a working plate (2 ml/well, 96 well/plate containing 1.5 mL of LB+Ampicillin (50 μg/ml)+2% Glucose). Both plates were grown at 30° C. for 8-12 hours. The master plate was stored at 4° C. and the cells from the working plate were pelleted at 5000 rpm and resuspended with 1 mL of LB+Ampicillin (50 μg/ml)+1 mM IPTG to induce expression of Fabs. Cells were harvested by centrifugation after 5 h expression time at 30° C., then resuspended in 500 μL of buffer HBS-EP ([…] buffer pH 7.4, 150 mM NaCl, 0.005% P20, 3 mM EDTA). Lysis of HBS-EP resuspended cells was attained by one cycle of freezing (−80° C.) then thawing at 37° C. Cell lysates were centrifuged at 5000 rpm for 30 min to separate cell debris from supernatants containing Fabs. The supernatants were then injected into the BIAcore plasmon resonance apparatus to obtain affinity information for each Fab. Clones expressing Fabs were rescued from the master plate to sequence the DNA and for large scale Fab production and detailed characterization as described below.
Affinities of anti-NGF Fabs and monoclonal antibodies were determined using the BIAcore300™ surface plasmon resonance (SPR) system (BIAcore, INC, Piscaway N.J.). CM5 chips were activated with N-ethyl-N′-(3-dimethylaminopropyl)-carbodimide hydrochloride (EDC) and N-hydroxysuccinimide (NHS) according to the supplier's instructions. Human NGF was diluted into 10 mM sodium acetate pH 4.0 and injected over the activated chip at a concentration of 0.005 mg/mL. Using variable flow time across the individual chip channels, two ranges of antigen density were achieved: 100-200 response units (RU) for detailed kinetic studies and 500-600 RU for screening assays. The chip was blocked with ethanolamine. […] HBS-EP buffer (0.01M HEPES, pH 7.4, 0.15 NaCl, 3 mM EDTA, 0.005% Surfactant […]) was used as running buffer for all the BIAcore assays.
A screening BIAcore assay was optimized to determine the affinity of Fab clones from libraries. Supernatants of small culture lysates were injected at 50 μl/min for 2 min. Dissociation times of 10 to 15 minutes were used for determination of a single exponential dissociation rate (koff) using BIAevaluation software. […] Clones showing improved (slower) koff values were expressed at large scale and full kinetic parameters, kon and koff, were determined on purified protein. The assay was capable of detecting differences in affinity that were approximately 2-fold or larger.
For affinity screening experiments, each library was further paired with the corresponding CDR-grafted light or heavy chain (for example, the H1/H2 library was paired with CDR-grafted light chain), the antibody was expressed, and affinity to human NGF of the individual clones was screened using the BIACORE surface plasmon resonance (SPR) system (BIAcore, Inc. Piscataway, N.J.) according to the manufacturer's instructions and as described above. koff, kon and KD were determined. Antibody clones were ranked based on koff rates, since generally most variation in affinity is seen in koff rates, and further because koff rates are independent of antibody concentration.
20-80 clones from each small library were screened using BIAcore analysis as described herein. Samples were simultaneously analyzed by BIAcore for binding affinity to NGF in one channel of the BIAcore chip and for presence of Fab by binding to a penta-histag antibody in another channel of the sensor chip, to detect the his tag at the C terminus of the heavy chain. Clones that expressed protein were classified as having the same affinity, worse affinity, better affinity or no binding, using koff to classify: The results of this analysis are shown in Table 5.
Target sequence in this assay (P01138 122-241): as the sequence (P01138 122-241 limits assumed) above

[4] = Table 6: single CDR H3 or L3 mutation in 8L2-6D5 template

Sequence of rat NGF (rat) (P25427 122-241 limits assumed): as the sequence (P01138 122-241 limits assumed) above, with S3T, I6V, R9M, M37T, D60A, D65E, M92T, G94D, V117A, A120G counted along it
Sequence of rat NGF (P25427 122-241): as the sequence (P01138 122-241 limits assumed) above, with S3T, I6V, R9M, M37T, D60A, D65E, M92T, G94D, V117A, A120G counted along it

| koff (human NGF [3]; [4]) | Molecule | further results |
| --- | --- | --- |
| – | mouse antibody 911 (Fab) | IC50, human NGF-dependent survival of mouse E13.5 trigeminal neurons, 1.5 pM NGF (human NGF [1]): 63.5 pM; IC50, human NGF-dependent survival of mouse E13.5 trigeminal neurons, 15 pM NGF (human NGF [1]): 322 pM; IC50, rat NGF-dependent survival of mouse E13.5 trigeminal neurons, 1.5 pM NGF (rat NGF (rat)): 34.6 pM; IC50, rat NGF-dependent survival of mouse E13.5 trigeminal neurons, 15 pM NGF (rat NGF (rat)): 161 pM |
| – | H19-L129: combined clone with matured CDRs H1, H2, L1, L2 and grafted H3 and L3 (antibody, V domains shown) VH: QVQLQESGPGLVKPSETLSLTCTVSGFSLIGYDLNWIRQPPGKGLEWIGIIWGDGTTDYNSAVKSRVTISKDTSKNQFSLKLSSVTAADTAVYYCARGGYYYGTSYYFDYWGQGTLVTVS VL: DIQMTQSPSSLSASVGDRVTITCRASQSISNNLNWYQQKPGKAPKLLIYYTSRFHSGVPSRFSGSGSGTDFTFTISSLQPEDIATYYCQQSKTLPYTFGQGTKLEIKRT | blocking of rat NGF-dependent trigeminal neuron survival (rat NGF): strongly blocked; blocking of human NGF-dependent trigeminal neuron survival (human NGF [2]): strongly blocked; koff (human NGF [3]; Table 4: combination clone, mutations in CDRs H1, H2, L1, L2): 0.00011 s⁻¹; koff (human NGF [3]; Table 8: CDR L3 H3 combination mutations, H19-L129 template (H1H2L1L2 matured)): 1.1 e-4 s-1 |
| 0.0017 s⁻¹ | Y96R: 8L2-6D5 template with CDR L3 mutation Y96R (antibody, V domains shown) VH: QVQLQESGPGLVKPSETLSLTCTVSGFSLIGYDINWIRQPPGKGLEWIGMIWGDGTTDYNSALKSRVTISKDTSKNQFSLKLSSVTAADTAVYYCARGGYYYGTSYYFDYWGQGTLVTVS VL: DIQMTQSPSSLSASVGDRVTITCRASQDISNHLNWYQQKPGKAPKLLIYYISRFHSGVPSRFSGSGSGTDFTFTISSLQPEDIATYYCQQSKTLPRTFGQGTKLEIKRT | – |
| 0.0017 s⁻¹ | Y110T: 8L2-6D5 template with CDR H3 mutation Y110T (antibody, V domains shown) VH: QVQLQESGPGLVKPSETLSLTCTVSGFSLIGYDINWIRQPPGKGLEWIGMIWGDGTTDYNSALKSRVTISKDTSKNQFSLKLSSVTAADTAVYYCARGGYYYGTSYYFDTWGQGTLVTVS VL: DIQMTQSPSSLSASVGDRVTITCRASQDISNHLNWYQQKPGKAPKLLIYYISRFHSGVPSRFSGSGSGTDFTFTISSLQPEDIATYYCQQSKTLPYTFGQGTKLEIKRT | – |
| 0.0016 s⁻¹ | Y110R: 8L2-6D5 template with CDR H3 mutation Y110R (antibody, V domains shown) VH: QVQLQESGPGLVKPSETLSLTCTVSGFSLIGYDINWIRQPPGKGLEWIGMIWGDGTTDYNSALKSRVTISKDTSKNQFSLKLSSVTAADTAVYYCARGGYYYGTSYYFDRWGQGTLVTVS VL: DIQMTQSPSSLSASVGDRVTITCRASQDISNHLNWYQQKPGKAPKLLIYYISRFHSGVPSRFSGSGSGTDFTFTISSLQPEDIATYYCQQSKTLPYTFGQGTKLEIKRT | – |
| 0.00122 s⁻¹ | F108W: 8L2-6D5 template with CDR H3 mutation F108W (antibody, V domains shown) VH: QVQLQESGPGLVKPSETLSLTCTVSGFSLIGYDINWIRQPPGKGLEWIGMIWGDGTTDYNSALKSRVTISKDTSKNQFSLKLSSVTAADTAVYYCARGGYYYGTSYYWDYWGQGTLVTVS VL: DIQMTQSPSSLSASVGDRVTITCRASQDISNHLNWYQQKPGKAPKLLIYYISRFHSGVPSRFSGSGSGTDFTFTISSLQPEDIATYYCQQSKTLPYTFGQGTKLEIKRT | – |
| 0.001 s⁻¹ | D109G: 8L2-6D5 template with CDR H3 mutation D109G (antibody, V domains shown) VH: QVQLQESGPGLVKPSETLSLTCTVSGFSLIGYDINWIRQPPGKGLEWIGMIWGDGTTDYNSALKSRVTISKDTSKNQFSLKLSSVTAADTAVYYCARGGYYYGTSYYFGYWGQGTLVTVS VL: DIQMTQSPSSLSASVGDRVTITCRASQDISNHLNWYQQKPGKAPKLLIYYISRFHSGVPSRFSGSGSGTDFTFTISSLQPEDIATYYCQQSKTLPYTFGQGTKLEIKRT | – |
| 0.0015 s⁻¹ | D109N: 8L2-6D5 template with CDR H3 mutation D109N (antibody, V domains shown) VH: QVQLQESGPGLVKPSETLSLTCTVSGFSLIGYDINWIRQPPGKGLEWIGMIWGDGTTDYNSALKSRVTISKDTSKNQFSLKLSSVTAADTAVYYCARGGYYYGTSYYFNYWGQGTLVTVS VL: DIQMTQSPSSLSASVGDRVTITCRASQDISNHLNWYQQKPGKAPKLLIYYISRFHSGVPSRFSGSGSGTDFTFTISSLQPEDIATYYCQQSKTLPYTFGQGTKLEIKRT | – |
| 0.0015 s⁻¹ | Y110S: 8L2-6D5 template with CDR H3 mutation Y110S (antibody, V domains shown) VH: QVQLQESGPGLVKPSETLSLTCTVSGFSLIGYDINWIRQPPGKGLEWIGMIWGDGTTDYNSALKSRVTISKDTSKNQFSLKLSSVTAADTAVYYCARGGYYYGTSYYFDSWGQGTLVTVS VL: DIQMTQSPSSLSASVGDRVTITCRASQDISNHLNWYQQKPGKAPKLLIYYISRFHSGVPSRFSGSGSGTDFTFTISSLQPEDIATYYCQQSKTLPYTFGQGTKLEIKRT | – |
| 0.0014 s⁻¹ | Y110K: 8L2-6D5 template with CDR H3 mutation Y110K (antibody, V domains shown) VH: QVQLQESGPGLVKPSETLSLTCTVSGFSLIGYDINWIRQPPGKGLEWIGMIWGDGTTDYNSALKSRVTISKDTSKNQFSLKLSSVTAADTAVYYCARGGYYYGTSYYFDKWGQGTLVTVS VL: DIQMTQSPSSLSASVGDRVTITCRASQDISNHLNWYQQKPGKAPKLLIYYISRFHSGVPSRFSGSGSGTDFTFTISSLQPEDIATYYCQQSKTLPYTFGQGTKLEIKRT | – |
